According to IntAct's records for PubMed 35512704:

B1: Mothers against decapentaplegic homolog 4 (Homo sapiens), Q13485 (parent)
chain: MDNMSITNTPTSNDACLSIVHSLMCHRQGGESETFAKRAIESLVKKLKEKKDELDSLITAITTNGAHPSKCVTIQRTLDGRLQVAGRKGFPHVIYARLWRWPDLHKNELKHVKYCQYAFDLKCDSVCVNPYHYERVVSPGIDLSGLTLQSNAPSSMMVKDEYVHDFEGQPSLSTEGHSIQTIQHPPSNRASTETYSTPALLAPSESNATSTANFPNIPVASTSQPASILGGSHSEGLLQIASGPQPGQQQNGFTGQPATYHHNSTTTWTGSRTAPYTPNLPHHQNGHLQHHPPMPPHPGHYWPVHNELAFQPPISNHPAPEYWCSIAYFEMDVQVGETFKVPSSCPIVTVDGYVDPSGGDRFCLGQLSNVHRTEAIERARLHIGKGVQLECKGEGDVWVRCLSDHAVFVQSYYLDREAGRAPGDAVHKIYPSAYIKVFDLRQCHRQMQQQAATAQAAAAAQAAAVAGNIPGPGSVGGIAPAISLSAAAGIGVDDLRRLCILRMSFVKGWGPDYPRQSIKETPCWIEIHLHRALQLLDEVLHTMPIADPQPLD

Variants of: B1
Conditions: with smad3_human SMAD3, P84022
For R361H, the “effect of a mutation on the interaction” value was “disrupting interaction strength”.

Variants of: B1
Conditions: with agap2_human AGAP2, Q99490
R361H was tested, and the “effect of a mutation on the interaction” value was “with no effect”.

Variants of: B1
Conditions: with ajuba_human AJUBA
R361H was tested, and the “effect of a mutation on the interaction” value was “with no effect”.

Variants of: B1
Conditions: with akt1_human AKT1, P31749
Chain of akt1_human AKT1, P31749 (P31749 whole entry): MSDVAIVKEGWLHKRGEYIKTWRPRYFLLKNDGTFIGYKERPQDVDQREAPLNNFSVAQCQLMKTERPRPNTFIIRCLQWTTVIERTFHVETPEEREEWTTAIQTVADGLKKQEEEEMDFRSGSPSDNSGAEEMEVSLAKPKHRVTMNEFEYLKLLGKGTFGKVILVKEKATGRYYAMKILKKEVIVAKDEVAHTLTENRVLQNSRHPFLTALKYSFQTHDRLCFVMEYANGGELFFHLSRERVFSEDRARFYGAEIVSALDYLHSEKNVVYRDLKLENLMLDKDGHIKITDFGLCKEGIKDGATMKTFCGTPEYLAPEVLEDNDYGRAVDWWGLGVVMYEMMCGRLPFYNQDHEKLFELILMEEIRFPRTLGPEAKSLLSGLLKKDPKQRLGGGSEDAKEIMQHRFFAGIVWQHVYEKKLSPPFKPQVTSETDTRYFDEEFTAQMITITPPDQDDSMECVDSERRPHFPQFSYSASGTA
In the case of R361H, the “effect of a mutation on the interaction” value is reported as “with no effect”.

Variants of: B1
Conditions: with akts1_human AKT1S1, Q96B36
In the case of R361H, the “effect of a mutation on the interaction” value is reported as “with no effect”.

Variants of: B1
Conditions: with akt3_human AKT3, Q9Y243
Chain of akt3_human AKT3, Q9Y243 (Q9Y243 whole entry): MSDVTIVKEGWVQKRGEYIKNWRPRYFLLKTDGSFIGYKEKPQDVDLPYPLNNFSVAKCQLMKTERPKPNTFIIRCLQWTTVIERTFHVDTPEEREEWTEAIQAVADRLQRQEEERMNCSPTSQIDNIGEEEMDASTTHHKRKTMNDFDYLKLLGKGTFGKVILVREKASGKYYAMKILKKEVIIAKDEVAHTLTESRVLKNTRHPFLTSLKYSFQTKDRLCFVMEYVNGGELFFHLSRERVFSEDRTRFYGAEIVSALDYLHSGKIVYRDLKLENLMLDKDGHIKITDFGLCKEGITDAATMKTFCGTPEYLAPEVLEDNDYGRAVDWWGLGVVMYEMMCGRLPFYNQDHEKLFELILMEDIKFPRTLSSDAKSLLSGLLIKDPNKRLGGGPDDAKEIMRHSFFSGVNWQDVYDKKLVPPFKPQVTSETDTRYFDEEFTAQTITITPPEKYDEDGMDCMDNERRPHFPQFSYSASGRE
In the case of R361H, the “effect of a mutation on the interaction” value is reported as “with no effect”.

Variants of: B1
Conditions: with alk_human ALK
In the case of R361H, the “effect of a mutation on the interaction” value is reported as “with no effect”.

Variants of: B1
Conditions: with aph1a_human APH1A
In the case of R361H, the “effect of a mutation on the interaction” value is reported as “with no effect”.

Variants of: B1
Conditions: with arnt_human ARNT
With R361H the “effect of a mutation on the interaction” value was “with no effect”.

Variants of: B1
Conditions: with arc1a_human ARPC1A
In the case of R361H, the “effect of a mutation on the interaction” value is reported as “with no effect”.

Variants of: B1
Conditions: with asxl1_human ASXL1, Q8IXJ9
R361H was tested, and the “effect of a mutation on the interaction” value was “with no effect”.

Variants of: B1
Conditions: with bakor_human ATG14, Q6ZNE5
Chain of bakor_human ATG14, Q6ZNE5 (Q6ZNE5 whole entry): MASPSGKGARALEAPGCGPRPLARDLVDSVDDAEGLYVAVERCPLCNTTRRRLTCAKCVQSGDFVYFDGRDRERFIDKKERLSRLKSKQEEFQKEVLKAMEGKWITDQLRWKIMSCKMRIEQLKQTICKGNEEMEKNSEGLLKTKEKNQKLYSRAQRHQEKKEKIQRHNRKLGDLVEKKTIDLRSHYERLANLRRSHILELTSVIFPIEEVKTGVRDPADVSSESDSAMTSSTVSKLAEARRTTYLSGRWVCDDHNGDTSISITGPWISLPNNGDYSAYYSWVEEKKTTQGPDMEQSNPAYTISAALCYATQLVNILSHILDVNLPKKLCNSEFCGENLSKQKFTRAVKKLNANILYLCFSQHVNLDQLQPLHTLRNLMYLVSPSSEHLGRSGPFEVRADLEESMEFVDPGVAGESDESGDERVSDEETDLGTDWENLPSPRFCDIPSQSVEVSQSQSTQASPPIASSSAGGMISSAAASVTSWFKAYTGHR
R361H was tested, and the “effect of a mutation on the interaction” value was “with no effect”.

Variants of: B1
Conditions: with atpb_human ATP5F1B
In the case of R361H, the “effect of a mutation on the interaction” value is reported as “with no effect”.

Variants of: B1
Conditions: with aurkb_human AURKB
R361H was tested, and the “effect of a mutation on the interaction” value was “with no effect”.

Variants of: B1
Conditions: with ufo_human AXL
R361H was tested, and the “effect of a mutation on the interaction” value was “with no effect”.

Variants of: B1
Conditions: with za2g_human AZGP1, P25311
Chain of za2g_human AZGP1, P25311 (P25311 whole entry): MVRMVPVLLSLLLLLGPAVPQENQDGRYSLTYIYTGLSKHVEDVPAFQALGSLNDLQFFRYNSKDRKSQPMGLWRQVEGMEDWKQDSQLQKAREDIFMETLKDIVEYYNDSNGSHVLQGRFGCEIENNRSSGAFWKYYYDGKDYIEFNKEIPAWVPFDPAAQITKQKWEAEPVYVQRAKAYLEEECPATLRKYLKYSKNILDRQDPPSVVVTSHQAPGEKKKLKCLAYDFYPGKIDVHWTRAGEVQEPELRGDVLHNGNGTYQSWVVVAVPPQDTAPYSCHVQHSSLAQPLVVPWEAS
For R361H, the “effect of a mutation on the interaction” value was “with no effect”.

Variants of: B1
Conditions: with b2mg_human B2M
R361H was tested, and the “effect of a mutation on the interaction” value was “with no effect”.

Variants of: B1
Conditions: with bap1_human BAP1, Q92560
With R361H the “effect of a mutation on the interaction” value was “with no effect”.

Variants of: B1
Conditions: with becn1_human BECN1, Q14457
In the case of R361H, the “effect of a mutation on the interaction” value is reported as “with no effect”.

Variants of: B1
Conditions: with birc2_human BIRC2, Q13490
For R361H, the “effect of a mutation on the interaction” value was “with no effect”.

Variants of: B1
Conditions: with braf_human BRAF
With R361H the “effect of a mutation on the interaction” value was “with no effect”.

Variants of: B1
Conditions: with baba2_human BABAM2, Q9NXR7
R361H was tested, and the “effect of a mutation on the interaction” value was “with no effect”.

Variants of: B1
Conditions: with cbl_human CBL
R361H was tested, and the “effect of a mutation on the interaction” value was “with no effect”.

Variants of: B1
Conditions: with cblb_human CBLB
In the case of R361H, the “effect of a mutation on the interaction” value is reported as “with no effect”.

Variants of: B1
Conditions: with ccnd2_human CCND2, P30279
For R361H, the “effect of a mutation on the interaction” value was “with no effect”.

Variants of: B1
Conditions: with ccnd3_human CCND3, P30281
In the case of R361H, the “effect of a mutation on the interaction” value is reported as “with no effect”.

Variants of: B1
Conditions: with cd44_human CD44, P16070
R361H was tested, and the “effect of a mutation on the interaction” value was “with no effect”.

Variants of: B1
Conditions: with cd79b_human CD79B
R361H was tested, and the “effect of a mutation on the interaction” value was “with no effect”.

Variants of: B1
Conditions: with cdn2b_human CDKN2B
In the case of R361H, the “effect of a mutation on the interaction” value is reported as “with no effect”.

Variants of: B1
Conditions: with cdn2c_human CDKN2C
For R361H, the “effect of a mutation on the interaction” value was “with no effect”.

Variants of: B1
Conditions: with cebpa_human CEBPA
For R361H, the “effect of a mutation on the interaction” value was “with no effect”.

Variants of: B1
Conditions: with chd1l_human CHD1L
For R361H, the “effect of a mutation on the interaction” value was “with no effect”.

Variants of: B1
Conditions: with ch3l1_human CHI3L1, P36222
R361H was tested, and the “effect of a mutation on the interaction” value was “with no effect”.

Variants of: B1
Conditions: with ctna1_human CTNNA1, P35221
Chain of ctna1_human CTNNA1, P35221 (P35221 whole entry): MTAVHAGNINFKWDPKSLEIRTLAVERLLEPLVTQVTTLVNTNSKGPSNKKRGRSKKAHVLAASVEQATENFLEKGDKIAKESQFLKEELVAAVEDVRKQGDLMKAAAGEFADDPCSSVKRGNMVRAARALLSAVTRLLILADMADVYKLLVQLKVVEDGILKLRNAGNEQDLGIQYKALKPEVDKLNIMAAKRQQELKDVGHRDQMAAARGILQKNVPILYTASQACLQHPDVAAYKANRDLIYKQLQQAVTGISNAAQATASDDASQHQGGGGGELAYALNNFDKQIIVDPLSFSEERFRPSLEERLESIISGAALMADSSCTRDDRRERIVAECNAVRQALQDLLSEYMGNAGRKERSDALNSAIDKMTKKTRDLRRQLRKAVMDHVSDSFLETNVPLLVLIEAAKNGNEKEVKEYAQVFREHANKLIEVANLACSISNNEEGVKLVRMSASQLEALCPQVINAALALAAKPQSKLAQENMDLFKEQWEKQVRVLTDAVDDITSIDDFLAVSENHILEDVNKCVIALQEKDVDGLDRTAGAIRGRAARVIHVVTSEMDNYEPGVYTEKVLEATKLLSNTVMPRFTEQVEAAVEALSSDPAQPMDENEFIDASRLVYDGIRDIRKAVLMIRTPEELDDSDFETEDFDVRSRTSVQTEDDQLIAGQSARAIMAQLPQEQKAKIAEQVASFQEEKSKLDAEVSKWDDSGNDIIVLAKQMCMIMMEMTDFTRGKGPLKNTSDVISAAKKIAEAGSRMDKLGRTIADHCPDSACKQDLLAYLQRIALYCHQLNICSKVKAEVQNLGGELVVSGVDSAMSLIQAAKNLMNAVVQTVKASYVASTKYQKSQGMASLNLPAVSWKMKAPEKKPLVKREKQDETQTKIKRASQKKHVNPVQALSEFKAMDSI
In the case of R361H, the “effect of a mutation on the interaction” value is reported as “with no effect”.

Variants of: B1
Conditions: with ctnb1_human CTNNB1, P35222
With R361H the “effect of a mutation on the interaction” value was “with no effect”.

Variants of: B1
Conditions: with cul3_human CUL3, Q13618
For R361H, the “effect of a mutation on the interaction” value was “with no effect”.

Variants of: B1
Conditions: with cul4b_human CUL4B
R361H was tested, and the “effect of a mutation on the interaction” value was “with no effect”.

Variants of: B1
Conditions: with dicer_human DICER1, Q9UPY3
For R361H, the “effect of a mutation on the interaction” value was “with no effect”.

Variants of: B1
Conditions: with dll3_human DLL3, Q9NYJ7
With R361H the “effect of a mutation on the interaction” value was “with no effect”.

Variants of: B1
Conditions: with duox2_human DUOX2, Q9NRD8
For R361H, the “effect of a mutation on the interaction” value was “with no effect”.

Variants of: B1
Conditions: with e2f3_human E2F3, O00716
For R361H, the “effect of a mutation on the interaction” value was “with no effect”.

Variants of: B1
Conditions: with e2f4_human E2F4, Q16254
In the case of R361H, the “effect of a mutation on the interaction” value is reported as “with no effect”.

Variants of: B1
Conditions: with e2f5_human E2F5, Q15329
Chain of e2f5_human E2F5, Q15329 (Q15329 whole entry): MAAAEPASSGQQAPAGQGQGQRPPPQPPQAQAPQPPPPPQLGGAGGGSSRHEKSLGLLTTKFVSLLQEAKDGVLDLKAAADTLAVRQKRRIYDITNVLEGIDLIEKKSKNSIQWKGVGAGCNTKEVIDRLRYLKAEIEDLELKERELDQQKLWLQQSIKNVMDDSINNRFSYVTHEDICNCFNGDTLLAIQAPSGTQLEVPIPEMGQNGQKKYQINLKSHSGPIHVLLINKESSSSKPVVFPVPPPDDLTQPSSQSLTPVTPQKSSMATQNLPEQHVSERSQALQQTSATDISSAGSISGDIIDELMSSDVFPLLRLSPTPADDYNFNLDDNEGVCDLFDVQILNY
For R361H, the “effect of a mutation on the interaction” value was “with no effect”.

Variants of: B1
Conditions: with if4e_human EIF4E
In the case of R361H, the “effect of a mutation on the interaction” value is reported as “with no effect”.

Variants of: B1
Conditions: with epha2_human EPHA2, P29317
For R361H, the “effect of a mutation on the interaction” value was “with no effect”.

Variants of: B1
Conditions: with epha7_human EPHA7, Q15375
In the case of R361H, the “effect of a mutation on the interaction” value is reported as “with no effect”.

Variants of: B1
Conditions: with ephb1_human EPHB1, P54762
In the case of R361H, the “effect of a mutation on the interaction” value is reported as “with no effect”.

Variants of: B1
Conditions: with erbb3_human ERBB3, P21860
For R361H, the “effect of a mutation on the interaction” value was “with no effect”.

Variants of: B1
Conditions: with erbb4_human ERBB4, Q15303
With R361H the “effect of a mutation on the interaction” value was “with no effect”.

Variants of: B1
Conditions: with esr1_human ESR1, P03372
R361H was tested, and the “effect of a mutation on the interaction” value was “with no effect”.

Variants of: B1
Conditions: with etv1_human ETV1, P50549
With R361H the “effect of a mutation on the interaction” value was “with no effect”.

Variants of: B1
Conditions: with fadd_human FADD
With R361H the “effect of a mutation on the interaction” value was “with no effect”.

Variants of: B1
Conditions: with facd2_human FANCD2, Q9BXW9
R361H was tested, and the “effect of a mutation on the interaction” value was “with no effect”.

Variants of: B1
Conditions: with fgf19_human FGF19, O95750
Chain of fgf19_human FGF19, O95750 (O95750 whole entry): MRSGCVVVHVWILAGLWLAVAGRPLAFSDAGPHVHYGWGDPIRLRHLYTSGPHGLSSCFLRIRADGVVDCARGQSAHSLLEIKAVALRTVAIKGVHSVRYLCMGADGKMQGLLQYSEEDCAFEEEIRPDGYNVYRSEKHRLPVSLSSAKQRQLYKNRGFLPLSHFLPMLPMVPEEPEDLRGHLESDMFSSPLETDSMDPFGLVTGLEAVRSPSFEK
R361H was tested, and the “effect of a mutation on the interaction” value was “with no effect”.

Variants of: B1
Conditions: with fgfr3_human FGFR3, P22607
With R361H the “effect of a mutation on the interaction” value was “with no effect”.

Variants of: B1
Conditions: with fgfr4_human FGFR4, P22455
In the case of R361H, the “effect of a mutation on the interaction” value is reported as “with no effect”.

Variants of: B1
Conditions: with foxo1_human FOXO1, Q12778
For R361H, the “effect of a mutation on the interaction” value was “with no effect”.

Variants of: B1
Conditions: with gbra6_human GABRA6, Q16445
R361H was tested, and the “effect of a mutation on the interaction” value was “with no effect”.

Variants of: B1
Conditions: with gata2_human GATA2, P23769
With R361H the “effect of a mutation on the interaction” value was “with no effect”.

Variants of: B1
Conditions: with gata3_human GATA3, P23771
For R361H, the “effect of a mutation on the interaction” value was “with no effect”.

Variants of: B1
Conditions: with gna11_human GNA11, P29992
In the case of R361H, the “effect of a mutation on the interaction” value is reported as “with no effect”.

Variants of: B1
Conditions: with gnaq_human GNAQ
R361H was tested, and the “effect of a mutation on the interaction” value was “with no effect”.

Variants of: B1
Conditions: with grm1_human GRM1, Q13255
With R361H the “effect of a mutation on the interaction” value was “with no effect”.

Variants of: B1
Conditions: with grm3_human GRM3, Q14832
R361H was tested, and the “effect of a mutation on the interaction” value was “with no effect”.

Variants of: B1
Conditions: with gsk3a_human GSK3A
In the case of R361H, the “effect of a mutation on the interaction” value is reported as “with no effect”.

Variants of: B1
Conditions: with hdac1_human HDAC1, Q13547
For R361H, the “effect of a mutation on the interaction” value was “with no effect”.

Variants of: B1
Conditions: with hdac3_human HDAC3, O15379
Chain of hdac3_human HDAC3, O15379 (O15379 whole entry): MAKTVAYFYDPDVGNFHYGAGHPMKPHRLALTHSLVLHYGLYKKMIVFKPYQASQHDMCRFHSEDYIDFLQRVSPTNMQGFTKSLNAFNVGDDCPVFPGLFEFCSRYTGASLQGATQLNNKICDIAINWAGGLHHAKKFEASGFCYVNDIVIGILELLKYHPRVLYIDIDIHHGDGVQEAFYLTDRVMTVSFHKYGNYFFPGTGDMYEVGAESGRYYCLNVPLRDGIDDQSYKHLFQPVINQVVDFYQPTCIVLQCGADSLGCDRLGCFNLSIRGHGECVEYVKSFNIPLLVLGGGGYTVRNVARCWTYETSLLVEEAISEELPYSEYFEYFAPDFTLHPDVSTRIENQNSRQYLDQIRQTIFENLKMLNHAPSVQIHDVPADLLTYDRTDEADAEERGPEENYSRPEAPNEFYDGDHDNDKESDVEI
R361H was tested, and the “effect of a mutation on the interaction” value was “with no effect”.

Variants of: B1
Conditions: with hgf_human HGF
For R361H, the “effect of a mutation on the interaction” value was “with no effect”.

Variants of: B1
Conditions: with h31_human H3C1, P68431
For R361H, the “effect of a mutation on the interaction” value was “with no effect”.

Variants of: B1
Conditions: with hlab_human HLA-B
R361H was tested, and the “effect of a mutation on the interaction” value was “with no effect”.

Variants of: B1
Conditions: with hnf1a_human HNF1A
R361H was tested, and the “effect of a mutation on the interaction” value was “with no effect”.

Variants of: B1
Conditions: with rash_human HRAS
With R361H the “effect of a mutation on the interaction” value was “with no effect”.

Variants of: B1
Conditions: with hs90a_human HSP90AA1, P07900
R361H was tested, and the “effect of a mutation on the interaction” value was “with no effect”.

Variants of: B1
Conditions: with hs90b_human HSP90AB1, P08238
With R361H the “effect of a mutation on the interaction” value was “with no effect”.

Variants of: B1
Conditions: with il7ra_human IL7R
For R361H, the “effect of a mutation on the interaction” value was “with no effect”.

Variants of: B1
Conditions: with irf6_human IRF6, O14896
With R361H the “effect of a mutation on the interaction” value was “with no effect”.

Variants of: B1
Conditions: with irs1_human IRS1, P35568
Chain of irs1_human IRS1, P35568 (P35568 whole entry): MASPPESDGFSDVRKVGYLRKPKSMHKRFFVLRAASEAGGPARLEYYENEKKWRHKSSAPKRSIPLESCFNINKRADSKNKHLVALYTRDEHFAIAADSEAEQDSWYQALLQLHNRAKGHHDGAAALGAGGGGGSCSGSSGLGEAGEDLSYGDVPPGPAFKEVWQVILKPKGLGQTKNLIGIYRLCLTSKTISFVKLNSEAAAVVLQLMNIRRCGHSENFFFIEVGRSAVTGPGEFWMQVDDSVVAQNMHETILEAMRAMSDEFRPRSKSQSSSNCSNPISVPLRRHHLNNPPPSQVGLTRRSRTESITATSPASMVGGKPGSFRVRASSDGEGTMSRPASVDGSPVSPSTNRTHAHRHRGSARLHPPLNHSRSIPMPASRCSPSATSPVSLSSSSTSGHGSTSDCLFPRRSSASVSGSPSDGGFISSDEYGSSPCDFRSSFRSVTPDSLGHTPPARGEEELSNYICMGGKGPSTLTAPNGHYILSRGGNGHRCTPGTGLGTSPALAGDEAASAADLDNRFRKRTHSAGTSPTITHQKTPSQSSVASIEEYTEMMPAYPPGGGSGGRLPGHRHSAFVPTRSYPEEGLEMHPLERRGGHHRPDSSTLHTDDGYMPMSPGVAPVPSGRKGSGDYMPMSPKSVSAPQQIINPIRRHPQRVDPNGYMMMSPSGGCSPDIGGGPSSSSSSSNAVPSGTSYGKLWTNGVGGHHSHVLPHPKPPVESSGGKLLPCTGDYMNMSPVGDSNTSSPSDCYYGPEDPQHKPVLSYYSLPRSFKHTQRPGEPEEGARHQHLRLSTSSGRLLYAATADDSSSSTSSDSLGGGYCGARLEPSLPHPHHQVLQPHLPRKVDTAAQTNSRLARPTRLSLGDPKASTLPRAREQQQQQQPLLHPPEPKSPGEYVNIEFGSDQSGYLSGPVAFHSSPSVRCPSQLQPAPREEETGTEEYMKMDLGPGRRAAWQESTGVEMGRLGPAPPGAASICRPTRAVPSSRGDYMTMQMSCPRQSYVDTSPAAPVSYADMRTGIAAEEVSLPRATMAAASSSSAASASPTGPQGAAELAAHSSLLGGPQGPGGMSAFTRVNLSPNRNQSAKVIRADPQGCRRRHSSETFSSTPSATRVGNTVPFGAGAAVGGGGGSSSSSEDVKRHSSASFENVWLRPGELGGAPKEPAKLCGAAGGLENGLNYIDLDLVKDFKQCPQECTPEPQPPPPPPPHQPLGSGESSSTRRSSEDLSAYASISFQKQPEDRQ
In the case of R361H, the “effect of a mutation on the interaction” value is reported as “with no effect”.

Variants of: B1
Conditions: with jak1_human JAK1, P23458
R361H was tested, and the “effect of a mutation on the interaction” value was “with no effect”.

Variants of: B1
Conditions: with kdm5c_human KDM5C
R361H was tested, and the “effect of a mutation on the interaction” value was “with no effect”.

Variants of: B1
Conditions: with vgfr2_human KDR
For R361H, the “effect of a mutation on the interaction” value was “with no effect”.

Variants of: B1
Conditions: with keap1_human KEAP1, Q14145
For R361H, the “effect of a mutation on the interaction” value was “with no effect”.

Variants of: B1
Conditions: with klf4_human KLF4, O43474
In the case of R361H, the “effect of a mutation on the interaction” value is reported as “with no effect”.
